Experiment [1] has as its target T1, BCL11A extended zinc finger domain (exZnF23) (Homo sapiens, UniProt Q9H165).
T1 construct: Monomeric by SEC-MALS; also called exZnF23A; BCL11A exZnF23; source: E. coli, purified
In words: pull-down; wt2D9 and BCL11A (Figure S1b); details in the Supporting Information.

Experiment [2] deals with T2, endogenous, full-length BCL11A (Homo sapiens (HUDEP-2 cells), UniProt Q9H165).
T2 construct: BCL11A, transcription factor and repressor of fetal globin genes, endogenous in HUDEP-2 cells; also called endogenous BCL11A; source: endogenous, HUDEP-2 lysate; endogenous, in HUDEP-2 cells
Nature of the experiment: pull-down; purified 2D9 or ZF5.3-2D9 added into the lysate of HUDEP-2 cells; endogenous BCL11A detected (the legend calls it immunoprecipitation). Conditions: one partner purified.

Experiment [3] addresses T1, BCL11A extended zinc finger domain …. In words: pull-down; read by SDS-PAGE (Figure 1C); the legend names only an SDS-PAGE analysis; who was held is not told; methods in the Supporting Information. Conditions: both partners purified.

T1 sequence (Q9H165 whole entry, looked up, the tested form may be a part): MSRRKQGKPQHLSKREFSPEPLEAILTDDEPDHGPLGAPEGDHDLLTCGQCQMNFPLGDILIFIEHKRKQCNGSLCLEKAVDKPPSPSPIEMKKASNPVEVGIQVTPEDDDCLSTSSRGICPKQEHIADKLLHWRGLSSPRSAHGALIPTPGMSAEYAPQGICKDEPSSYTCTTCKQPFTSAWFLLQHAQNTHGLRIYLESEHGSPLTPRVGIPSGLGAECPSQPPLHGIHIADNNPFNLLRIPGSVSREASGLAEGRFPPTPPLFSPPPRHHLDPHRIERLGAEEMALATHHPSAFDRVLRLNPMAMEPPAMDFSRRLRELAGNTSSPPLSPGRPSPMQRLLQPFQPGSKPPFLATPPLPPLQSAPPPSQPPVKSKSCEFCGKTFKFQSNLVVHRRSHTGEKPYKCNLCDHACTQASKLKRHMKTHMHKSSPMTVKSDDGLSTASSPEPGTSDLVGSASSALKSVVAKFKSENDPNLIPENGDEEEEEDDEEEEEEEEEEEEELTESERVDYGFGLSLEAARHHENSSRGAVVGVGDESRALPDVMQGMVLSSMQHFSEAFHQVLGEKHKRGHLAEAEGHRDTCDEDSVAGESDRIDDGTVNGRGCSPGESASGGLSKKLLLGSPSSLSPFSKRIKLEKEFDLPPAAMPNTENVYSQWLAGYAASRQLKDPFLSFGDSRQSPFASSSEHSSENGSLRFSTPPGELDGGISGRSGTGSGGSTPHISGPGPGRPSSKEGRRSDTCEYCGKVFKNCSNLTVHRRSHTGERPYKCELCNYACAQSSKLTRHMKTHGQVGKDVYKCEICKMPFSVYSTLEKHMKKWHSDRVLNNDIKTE
T2 sequence (Q9H165 whole entry): as the sequence (Q9H165 whole entry, looked up, the tested form may be a part) above

B1: Nanobody wt2D9 (initial hit) (VHH)
VHH: QVQLVESGGGLVQAGGSLRLSCAASGSIFVNNAMGWYRQAPGKERELVAAISASGGSTYYADSVKGRFTISRDNAKNTVYLQMNSLKPEDTAVYYCAADQDVYPYEYWGQGTQVTVSS
notes: initial synthetic nanobody hit of the yeast surface display screen; parent of 2D9 (2D9_V102G): as the chain of PDB 7UTG with V instead of G at 102; source: E. coli
For B1, the binding result in experiment [1] was “binds”.

B2: Nanobody 2D9 (2D9_V102G) (VHH)
VHH: QVQLVESGGGLVQAGGSLRLSCAASGSIFVNNAMGWYRQAPGKERELVAAISASGGSTYYADSVKGRFTISRDNAKNTVYLQMNSLKPEDTAVYYCAADQDGYPYEYWGQGTQVTVSS
notes: also called Nb 2D9; source: purified
For B2, the binding result in experiment [2] and in experiment [3] was “binds” in each case.

B3: Nanobody 2D9_W108L (VHH)
VHH: QVQLVESGGGLVQAGGSLRLSCAASGSIFVNNAMGWYRQAPGKERELVAAISASGGSTYYADSVKGRFTISRDNAKNTVYLQMNSLKPEDTAVYYCAADQDVYPYEYLGQGTQVTVSS
notes: wt2D9 is as 2D9 of PDB 7UTG but with V at 102; By its name a single mutant of wt2D9, a sibling of 2D9_V102G; the reversion at 102 against PDB 7UTG is worked out from the names
For B3, the binding result in experiment [3] was “binds”.

(Values after paper PMC9801508, “A Cell-Permeant Nanobody-Based Degrader That Induces Fetal Hemoglobin” (ACS Central Science, 2022).)
